We go through one molecule from publication PMC7076025, “A unique DNA-binding mode of African swine fever virus AP endonuclease”.

For this data set, the target named is T1, AsfvAP WT (African swine fever virus, UniProt P0C9C6 1-296).
T1 sequence: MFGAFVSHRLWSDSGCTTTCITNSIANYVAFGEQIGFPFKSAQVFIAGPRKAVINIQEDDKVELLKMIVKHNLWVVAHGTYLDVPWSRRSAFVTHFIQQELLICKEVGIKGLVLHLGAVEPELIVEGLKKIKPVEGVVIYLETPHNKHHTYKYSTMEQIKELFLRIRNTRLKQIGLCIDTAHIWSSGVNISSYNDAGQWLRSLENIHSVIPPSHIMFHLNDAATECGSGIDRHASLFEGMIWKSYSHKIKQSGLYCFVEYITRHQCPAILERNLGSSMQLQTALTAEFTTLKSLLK
Description: X-ray crystallography. Conditions: protein: recombinant; tags: His-SUMO removed with Ulp1; GSGGG linker encoded before M1.

B1: DNA-2 (dsDNA)
DNA 1: GCAGCGTCACCGACGAAA
DNA 2: CCTCGTCGGGGACGCTGC
B1: the binding result is listed as “binds”.
